From paper PMC5323315 (Molecular microbiology, 2017)

Target: T1, DnaAΔC with a C-terminal hexa-histidine tag (B. subtilis, UniProt P05648 1-355)
T1 sequence (looked up): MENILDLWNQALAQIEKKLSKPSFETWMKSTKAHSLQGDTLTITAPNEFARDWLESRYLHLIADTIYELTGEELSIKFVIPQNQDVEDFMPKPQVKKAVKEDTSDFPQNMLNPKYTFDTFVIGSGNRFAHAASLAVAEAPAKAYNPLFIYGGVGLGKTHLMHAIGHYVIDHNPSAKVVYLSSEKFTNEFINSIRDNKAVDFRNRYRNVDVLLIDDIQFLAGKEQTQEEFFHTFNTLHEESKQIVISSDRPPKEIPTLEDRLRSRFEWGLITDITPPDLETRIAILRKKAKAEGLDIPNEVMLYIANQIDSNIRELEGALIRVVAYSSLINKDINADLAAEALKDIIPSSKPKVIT
Experiment: native gel or EMSA

binding result: binds
B1: Rok with a C-terminal hexa-histidine tag (natural protein, B. subtilis, UniProt O34857 1-191, looked up)
chain: MFNEREALRLRLEQLNEAEVKVIREYQIERDKIYAKLRELDRNGSPSEIKKDFRSEKKPDSLPVLAELAAQEIRSYQPQSQQQSVQPQLQSISSLPAGIPDGTTRRRRGTARPGSKAAKLREAAIKTLKRHNAAIKSSELQKEIEKESGLEIPNMTTFMQSLIKMYPEVKKPYRGQYILEGEIESAESANE
